Assay results taken from patent US20230099801A1, “RESTORATION OF T CELL ACTIVITY VIA THE CD39/CD73 AXIS” (INNATE PHARMA, priority 2017, published 2023).
Entries after “also recorded” stand apart in the source; their conditions may differ.

How the values were obtained:
[1] = molecular target: T1, soluble recombinant human CD39 protein (Homo sapiens, UniProt P49961); test: Inhibition of the enzymatic (ATPase) activity of soluble CD39, Cell Titer Glo; assay type: biochemical
T1 construct: made in house; host or cells: CHO cells
T1 sequence (P49961 with tags, fused parts or gaps): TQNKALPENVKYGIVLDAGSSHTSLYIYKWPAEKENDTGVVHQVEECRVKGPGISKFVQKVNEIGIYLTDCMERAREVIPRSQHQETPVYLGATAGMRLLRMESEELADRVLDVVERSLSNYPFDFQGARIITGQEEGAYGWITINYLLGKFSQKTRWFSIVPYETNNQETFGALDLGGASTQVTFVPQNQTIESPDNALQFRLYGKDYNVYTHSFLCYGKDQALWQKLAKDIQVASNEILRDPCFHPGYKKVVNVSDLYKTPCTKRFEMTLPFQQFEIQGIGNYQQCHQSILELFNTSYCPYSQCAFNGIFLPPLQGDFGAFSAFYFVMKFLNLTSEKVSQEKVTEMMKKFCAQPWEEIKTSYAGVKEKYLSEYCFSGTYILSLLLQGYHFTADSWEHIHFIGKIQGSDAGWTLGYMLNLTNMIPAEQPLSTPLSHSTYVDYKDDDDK
Method: The ability of an antibody to inhibit soluble recombinant human CD39 protein can be tested by detecting ATP after incubating test antibody with soluble CD39 protein (e.g., the CD39 protein having the amino acid sequence of SEQ ID NO: 5, as produced in Example 1, optionally further comprising a purification tag or other functional or non-functional non-CD39-derived amino acid sequence). See, e.g., Example 1. Briefly, ATP can be quantified using the Cell Titer Glo™ (Promega), in an assay in which dose ranges of test antibody are incubated with soluble recombinant human CD39 protein described in Example 1, for 1 hour at 37° C. 20 μM ATP are added to the plates for 30 additional minutes at 37° C. before addition of CTG reagent. Emitted light is quantified using an Enspire™ luminometer after a short incubation period of 5 min in the dark.
The inhibition by antibodies of the enzymatic activity of soluble CD39 protein produced was evaluated using Cell Titer Glo™ (Promega, reference G7571) that allows assessment of ATP hydrolysis through use of a reagent that generates a luminescent signal proportional to the amount of ATP present. In this way, inhibition of the soluble-CD39-mediated ATP hydrolysis can be assessed. Briefly, dose ranges of anti-CD39 antibodies from 100 μg/ml to 6×10^−3 μg/ml were incubated with 400 ng/ml of soluble recombinant human CD39 protein having the amino acid sequence described in the Methods section (SEQ ID NO: 54), for 1h at 37° C. 20 μM ATP was added to the plates for 30 additional minutes at 37° C. before addition of CTG (Cell Titer Glo) reagent. Emitted light was quantified using an Enspire™ luminometer after a short incubation period of 5 min in the dark. Anti-CD39 antibody efficacy was determined by comparing emitted light in presence of antibody with ATP alone (maximal light emission) and ATP together with soluble CD39 protein (minimal light emission).

[2] = molecular target: T2, human Ramos lymphoma cells (Homo sapiens, UniProt P49961); test: Antibody titration on Ramos cells by flow cytometry; assay type: binding
T2 construct: host or cells: Ramos human lymphoma cells
T2 sequence (P49961 1-510): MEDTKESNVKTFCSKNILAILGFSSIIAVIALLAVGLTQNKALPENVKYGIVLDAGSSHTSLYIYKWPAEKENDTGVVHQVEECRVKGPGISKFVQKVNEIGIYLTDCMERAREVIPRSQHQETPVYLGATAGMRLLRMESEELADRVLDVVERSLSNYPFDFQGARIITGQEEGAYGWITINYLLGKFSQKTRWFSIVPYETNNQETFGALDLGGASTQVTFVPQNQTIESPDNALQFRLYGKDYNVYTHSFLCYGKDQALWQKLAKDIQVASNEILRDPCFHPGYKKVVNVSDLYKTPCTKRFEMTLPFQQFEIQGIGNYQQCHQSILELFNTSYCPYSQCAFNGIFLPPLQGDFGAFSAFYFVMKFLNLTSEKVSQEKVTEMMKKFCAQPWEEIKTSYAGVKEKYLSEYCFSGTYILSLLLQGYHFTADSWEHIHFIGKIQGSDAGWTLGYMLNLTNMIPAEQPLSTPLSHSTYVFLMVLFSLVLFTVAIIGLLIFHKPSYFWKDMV
Method: (§1) Cells were incubated with various concentration of unlabeled anti-CD39 antibody from 30 μg/ml to 5×10^−4 μg/ml, for 30 minutes at 4° C. After washes, cells were incubated with Goat anti-mouse H+L labeled secondary antibody for 30 min at 4° C.

[3] = molecular target: T3, CHO cells expressing human CD39 (CHO-huCD39) (Homo sapiens, UniProt P49961); test: Antibody titration on CHO-huCD39 cells by flow cytometry; assay type: binding
T3 construct: expressed in transfected cells; host or cells: CHO cells
T3 sequence (P49961 1-510): T2 sequence (P49961 1-510)
Method: as §1

[4] = tested on: monocyte-derived DC (moDC); test: Activation of dendritic cells in presence of ATP; assay type: cell-based, human; settings: ATP at each of 0.125 mM, 0.25 mM or 0.5 mM; I-394 at 10 μg/ml
Method: While ATP has pro-inflammatory activity, CD39-mediated catabolism of ATP is believed to be able to impair dendritic cell (DC) activation, in turn altering a broader adaptive immune response against tumor antigen. In order to evaluate whether CD39 blockade using anti-CD39 antibodies could overcome CD39-mediated alteration of dendritic cell (DC) activation in the presence of ATP, we incubated monocyte-derived DC (moDC) with anti-CD39 antibodies in the presence of ATP.
Briefly, human monocytes were purified from human healthy blood and differentiated into MoDC in presence of GM-CSF and IL-4 during 6 days. […] LPS (Invivogen, 10 ng/ml) was used as positive control. To assess resulting effect of ATP-mediated DC activation on CD4 T cells activation, ATP-activated DC were washed and then incubated with allogenic CD4 T cells (ratio 1 MoDC/4 T cells) for a mixed lymphocytes reaction (MLR) during 5 days. T cells activation and proliferation were analyzed through CD25 expression and Cell Trace Violet dilution by flow cytometry (FIG. 8).

CD8 T cells = test: T cell proliferation assay in presence of added ATP, CD8 T cells; assay type: cell-based, human
Method: Peripheral blood from healthy donors was obtained from EFS, and mononuclear cells were isolated on a Ficoll gradient. Lymphocytes were further enriched on a 52% Percoll gradient by collection of the cell pellets and stained with a Cell Trace dye (Thermofisher) following the TDS provided by the manufacturer. […] Inhibition of T cell proliferation was achieved by addition of ATP (200 μM). T cell proliferation and ability of Abs to block immune suppressive effect of AMP were assessed by flow cytometry by quantifying the dye dilution in the proliferating T cell subset.
Percentage of proliferating T cells vs. anti-CD73 Ab concentration is plotted in graphs using GraphPad Prism software.

- maximum inhibition achieved, soluble CD39 protein [1]: 74.9%
- inhibition of ATPase activity of soluble CD39 when antibody is spiked into negative hybridoma supernatants ([1]; added to hybridoma supernatant): did not restore
- inhibition of ATPase activity of soluble CD39 after purification from the negative supernatant ([1]; purified with Protein A coated beads): again able to inhibit
- binding to Ramos lymphoma cells [2]: bound; also recorded: binds
- binding to cells expressing human CD39 [3]: bound; also recorded: binds
B1: I-394: anti-CD39 antibody, VH SEQ ID NO: 6, VL SEQ ID NO: 7; heavy/light chains SEQ ID NOS: 52 and 53 (antibody)
heavy: EVQLQQSGPELVKPGASVKMSCKASGYTFTDYNMHWVKQSHGRTLEWIGYIVPLNGGSTFNQKFKGRATLTVNTSSRTAYMELRSLTSEDSAAYYCARGGTRFAYWGQGTLVTVSAASTKGPSVFPLAPSSKSTSGGTAALGCLVKDYFPEPVTVSWNSGALTSGVHTFPAVLQSSGLYSLSSVVTVPSSSLGTQTYICNVNHKPSNTKVDKRVEPKSCDKTHTCPPCPAPEAEGAPSVFLFPPKPKDTLMISRTPEVTCVVVDVSHEDPEVKFNWYVDGVEVHNAKTKPREEQYNSTYRVVSVLTVLHQDWLNGKEYKCKVSNKALPSSIEKTISKAKGQPREPQVYTLPPSREEMTKNQVSLTCLVKGFYPSDIAVEWESNGQPENNYKTTPPVLDSDGSFFLYSKLTVDKSRWQQGNVFSCSVMHEALHNHYTQKSLSLSPGK
light: DIVLTQSPASLAVSLGQRATISCRASESVDNFGVSFMYWFQQKPGQPPNLLIYGASNQGSGVPARFRGSGSGTDFSLNIHPMEADDTAMYFCQQTKEVPYTFGGGTKLEIKRTVAAPSVFIFPPSDEQLKSGTASVVCLLNNFYPREAKVQWKVDNALQSGNSQESVTEQDSKDSTYSLSSTLTLSKADYEKHKVYACEVTHQGLSSPVTKSFNRGEC
modifications: Chimeric homo sapiens mus musculus
- inhibition of the enzymatic (ATPase) activity of soluble CD39 protein ([1]; 400 ng/ml soluble CD39, 20 μM ATP): strong inhibition; also recorded: inhibits; also recorded: highly potent
- moDC activation as assessed by HLA-DR or CD83 expression [4]: permitted moDC activation; also recorded: lead to moDC activation
- potentiation of anti-CD73 antibodies in restoring CD8 T cell proliferation (CD8 T cells; added ATP 200 μM): strongly potentiation
- enhancement of CD8 T cell proliferation, alone without anti-CD73 (CD8 T cells; concentrations of 0.1 μg/ml and 1 μg/ml, added ATP): remarkable enhancement
